Entries after “also recorded” stand apart in the source; their conditions may differ.
Assays:
[1] = amine oxidase activity in vitro of renalase isolated from blood and urine; assay type: biochemical, human; details: basal conditions
Source text: We have tested renalase isolated from blood and urine.

[2] = blood pressure and heart rate in conscious mice; assay type: in vivo
Protocol: We also tested the effect of renalase on blood pressure and heart rate in conscious mice. Recombinant renalase was prepared using the method described in Example 3 of PCT/US05/009248, which is specifically and completely incorporated herein by reference. As explained in more detail therein, the recombinant protein made in E. coli as used in the examples herein is refolded before administration. Thus, the recombinant renalase protein as used herein is in the active form (i.e., it is active renalase as defined above).
The recombinant protein was given by tail vein injection (100 μg) or retroorbital injection (1 mg) and ambulatory blood pressure and heart rates were measured continuously for 24 hours.

[3] = test system: isolated perfused mouse heart; experiment: isolated perfused mouse heart model of ischemia-reperfusion
Source text: Since renalase can metabolize catecholamines, we tested whether it could protect against ischemic myocardial damage.

[4] = infusion of recombinant renalase into rats; assay type: in vivo

B1: protein isolated from human blood: native renalase isolated from human blood under basal conditions (protein, UniProt Q5VYX0 18-342, looked up)
Renalase: ALLRRQTSGPLYLAVWDKAEDSGGRMTTACSPHNPQCTADLGAQYITCTPHYAKKHQRFYDELLAYGVLRPLSSPIEGMVMKEGDCNFVAPQGISSIIKHYLKESGAEVYFRHRVTQINLRDDKWEVSKQTGSPEQFDLIVLTMPVPEILQLQGDITTLISECQRQQLEAVSYSSRYALGLFYEAGTKIDVPWAGQYITSNPCIRFVSIDNKKRNIESSEIGPSLVIHTTVPFGVTYLEHSIEDVQELVFQQLENILPGLPQPIATKCQKWRHSQVTNAAANCPGQMTLHHKPFLACGGDGFTQSNFDGCITSALCVLEALKNYI
- amine oxidase activity in vitro [1]: no significant amine oxidase activity

B2: renalase isolated from human urine: native renalase isolated from human urine (protein, UniProt Q5VYX0 18-342, looked up)
Renalase: B1 Renalase
- amine oxidase activity in vitro [1]: metabolizes catecholamines

B3: renalase: recombinant renalase protein made in E. coli, refolded before administration; secreted FAD-containing monoamine oxidase of the kidney (protein)
chain: ALLRKEITAPLYLALWDKAGDIGGRMTTANSPHNPRCTADLGAQYITCTPHYAKKHQNFYEELLAHGILEPLTSPIKGMEVKEGESNFVAPHGVSSIIKYYLKESGAEVFLRQCVTQINLRDNKWEVSEDTGSTQQFDLVILTMPAPQILGLQGDIVNLISERQRQQLASVSYSSRYALGLFYEAGMKIDVPWAGQYITSNPCIRFISIDSKKRNTESSECGPLLVVHTTVPFGVTHLEHSEEDVQELITQQLETILPGLPPPVATKCWKWRYSQVTNSAANSPGQMTLHLNPFLIYI
- mean blood pressure ([2]; 100 μg by tail injection): remained unchanged
- minute-to-minute variability in blood pressure ([2]; 100 μg by tail injection, conscious mice): decreased
- heart rate ([2]; 100 μg by tail injection, for several hours): significantly increased
- blood pressure ([2]; 1 mg by retroorbital injection): significant and long-lasting fall
- heart rate ([2]; 1 mg by retroorbital injection): significant and long-lasting fall
- reversibility of the blood pressure effect ([2]; continuous IV infusion, after stopping): reversible
- blood pressure ([2]; continuous infusion by tail vein, 20 μg/minute, during the period of infusion): reduction in blood pressure
- myocardial (left ventricular) function ([3]; infusion from 10 minutes before 15 min global ischemia until 2 hours after reperfusion, versus control protein glutathione synthase): preserved myocardial function significantly better; also recorded: preserves left ventrical (LV) function
- decrease of myocardial necrosis ([3]; ischemia-reperfusion, n=3, p<0.001): 54%
- blood pressure [4]: reduction
- heart rate [4]: lower

Source: patent publication US7858084B2, “Methods of treatment with renalase (monoamine oxidase C)” (Yale University, priority 2005, dated 2010)
